T1: Full length human midkine protein (human) (UniProt P21741)
T1 sequence: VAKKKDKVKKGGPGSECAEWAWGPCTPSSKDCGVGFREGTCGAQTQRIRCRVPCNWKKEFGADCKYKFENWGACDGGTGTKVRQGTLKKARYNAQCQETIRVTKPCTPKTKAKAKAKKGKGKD

B1: Δ14 MDK (truncated human midkine lacking 14 amino acids from the C-terminus) (ligand)
chain: VAKKKDKVKKGGPGSECAEWAWGPCTPSSKDCGVGFREGTCGAQTQRIRCRVPCNWKKEFGADCKYKFENWGACDGGTGTKVRQGTLKKARYNAQCQETIRVTKPCTPK
B2: Δ25 MDK (truncated human midkine lacking 25 amino acids from the C-terminus) (ligand)
chain: VAKKKDKVKKGGPGSECAEWAWGPCTPSSKDCGVGFREGTCGAQTQRIRCRVPCNWKKEFGADCKYKFENWGACDGGTGTKVRQGTLKKARYNAQCQE
B3: Δ41 MDK (truncated human midkine lacking 41 amino acids from the C-terminus) (ligand)
chain: VAKKKDKVKKGGPGSECAEWAWGPCTPSSKDCGVGFREGTCGAQTQRIRCRVPCNWKKEFGADCKYKFENWGACDGGTGTKV
B4: Δ34 MDK (truncated human midkine lacking 34 amino acids from the C-terminus) (ligand)
chain: VAKKKDKVKKGGPGSECAEWAWGPCTPSSKDCGVGFREGTCGAQTQRIRCRVPCNWKKEFGADCKYKFENWGACDGGTGTKVRQGTLKK
B5: Δ58 MDK (truncated human midkine lacking 58 amino acids from the C-terminus) (ligand)
chain: VAKKKDKVKKGGPGSECAEWAWGPCTPSSKDCGVGFREGTCGAQTQRIRCRVPCNWKKEFGADCK

target: T1, Full length human midkine protein (human); assay: cell-based or functional assay

Total Area (area under the curve of wound width, Cell Migration Assay) | Binder
1710 | B1
1040 | B2
924 | B3
768 | B4
1990 | B5

Source: patent US20260049113A1
